# Results as given in patent US20150166670A1 (Hoffmann-La Roche, published 2015).
# How the values were obtained:
# human HER1 ectodomain = target: T1, human HER1 ectodomain (human, UniProt P00533 25-645); experiment: SPR Biacore T100, 37 C, antibody captured via anti-human IgG-Fc, ECD as analyte, 1:1 Langmuir fit
# T1 construct: extracellular domain; also called hu HER1 ECD; Her1 ECD
# Description: (§1) All experiments were performed on a Biacore T100 (GE Healthcare). Experimental results were analyzed using the T100 control and evaluation software package (GE Healthcare, v2.03). The assay format was a ‘multi cycle kinetic’ measurement on a CM5-chip. […] Using a concentration series, seven increasing concentrations of each of the antigens (human Her1, Her2, and Her3 ectodomain) were injected separately. […] Running buffer was PBS-T. Dilution buffer was PBST containing BSA (c=1 mg/mL). Capturing of MAbs<HerX> on flow cell 2, 3, and 4 with a concentration of approx. c=1 nM, flow 50/min, time 72 sec. […] Dissociation time: 1800 sec. Each concentration was analyzed as duplicate. Final regeneration was performed after each cycle using 3 M MgCl2 (recommended by vendor) with a contact time of 120 sec and a flow rate of 50 μl/min. Analysis of simultaneous binding: Her2/Her3, Her3/Her2 or Her1/Her2 were injected consecutively using the dual inject mode with a contact time of 180 sec. each. The antigen concentration was chosen for each antigen at the saturation as observed in the kinetics experiment. […] A temperature of 25° C. was chosen to minimize dissociation. Triplicates for each combination were determined. Flow rate 30 mL/min, dual inject with two injects, each 180 sec.
# human HER3 ectodomain = target: T2, human HER3 ectodomain (human, UniProt P21860 20-643); experiment: as above
# T2 construct: extracellular domain; also called hu HER3 ECD; Her3 ECD
# Description: as §1
# human HER2 ectodomain = target: T3, human HER2 ectodomain (human, UniProt P04626 23-652); experiment: SPR (Biacore T100), antibody captured via anti-human IgG-Fc on a CM5 chip, dual inject Her2 then Her3 ectodomain, 180 s each, 25 °C
# T3 construct: extracellular domain; also called hu HER2 ECD; Her2 ECD
# Description: as §1
# T2 sequence (P21860 20-643): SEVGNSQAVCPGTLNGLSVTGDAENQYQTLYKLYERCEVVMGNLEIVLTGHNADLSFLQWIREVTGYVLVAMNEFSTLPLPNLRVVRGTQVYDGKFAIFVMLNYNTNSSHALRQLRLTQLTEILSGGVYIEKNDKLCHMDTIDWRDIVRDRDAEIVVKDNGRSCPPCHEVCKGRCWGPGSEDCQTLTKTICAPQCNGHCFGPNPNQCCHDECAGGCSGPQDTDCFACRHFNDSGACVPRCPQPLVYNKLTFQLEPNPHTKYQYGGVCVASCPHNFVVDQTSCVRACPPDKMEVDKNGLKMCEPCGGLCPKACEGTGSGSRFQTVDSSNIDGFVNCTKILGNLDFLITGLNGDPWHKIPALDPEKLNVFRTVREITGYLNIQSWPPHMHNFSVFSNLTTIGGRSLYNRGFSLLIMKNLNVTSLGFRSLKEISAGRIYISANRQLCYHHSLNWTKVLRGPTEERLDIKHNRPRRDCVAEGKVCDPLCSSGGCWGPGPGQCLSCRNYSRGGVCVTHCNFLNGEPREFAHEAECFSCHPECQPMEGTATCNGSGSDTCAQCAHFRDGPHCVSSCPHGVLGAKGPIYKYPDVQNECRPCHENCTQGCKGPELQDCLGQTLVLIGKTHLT
Binder,Kd (human HER1 ectodomain) [nM],koff (human HER1 ectodomain) [s⁻¹],kon (human HER1 ectodomain) [M⁻¹ s⁻¹],t ½ (human HER1 ectodomain) [min],Kd (human HER3 ectodomain) [nM],koff (human HER3 ectodomain) [s⁻¹],kon (human HER3 ectodomain) [M⁻¹ s⁻¹],t ½ (human HER3 ectodomain) [min],binding result (human HER2 ectodomain)
"parental DAF (Her1-Her3 dual affinity antibody) (antibody, also called DAF antibody; Bispecific parent Her1/Her3 (with KiH)) heavy 1: not shown heavy 2: not shown light: DIQMTQSPSSLSASVGDRVTITCRASQNIATDVAWYQQKPGKAPKLLIYSASFLYSGVPSRFSGSGSGTDFTLTISSLQPEDFATYYCQQSEPEPYTFGQGTKVEIKRTVAAPSVFIFPPSDEQLKSGTASVVCLLNNFYPREAKVQWKVDNALQSGNSQESVTEQDSKDSTYSLSSTLTLSKADYEKHKVYACEVTHQGLSSPVTKSFNRGEC",14,0.021,1.4e+06,0.6,1.9,0.0037,2e+06,3.1,no binding
"trispecific antibody KiH Her1-Her3 DAF-xHer2 (antibody, human IgG1, kappa, also called Trispecific Her1/Her3 xHer2) heavy 1: not shown heavy 2: not shown light 1: DIQMTQSPSSLSASVGDRVTITCRASQNIATDVAWYQQKPGKAPKLLIYSASFLYSGVPSRFSGSGSGTDFTLTISSLQPEDFATYYCQQSEPEPYTFGQGTKVEIKRTVAAPSVFIFPPSDEQLKSGTASVVCLLNNFYPREAKVQWKVDNALQSGNSQESVTEQDSKDSTYSLSSTLTLSKADYEKHKVYACEVTHQGLSSPVTKSFNRGEC light 2: DIQMTQSPSSLSASVGDRVTITCKASQDVSIGVAWYQQKPGKAPKLLIYSASYRYTGVPSRFSGSGSGTDFTLTISSLQPEDFATYYCQQYYIYPYTFGQGTKVEIKSSASTKGPSVFPLAPSSKSTSGGTAALGCLVKDYFPEPVTVSWNSGALTSGVHTFPAVLQSSGLYSLSSVVTVPSSSLGTQTYICNVNHKPSNTKVDKKVEPKSC",17,0.02,1.2e+06,0.6,1.8,0.0044,2.4e+06,2.6,
